These results are taken from paper PMC6344544, “Illuminating the catalytic core of ectoine synthase through structural and biochemical analysis” (Scientific Reports, 2019).

The stoichiometry N is a count of units in the complex or per binding partner. In general, Km refers to the concentration of substrate that gives half-maximal velocity.

Data set [1] has as its target Paenibacillus lautus ectoine synthase fused at its C-terminus to a Strep-tag II affinity peptide [(Pl)EctC-Strep-tag II] (Paenibacillus lautus Y4.12MC10). The experiment in a line: SEC-MALS; HPLC-MALS; 200 µl of purified (Pl)EctC protein (2 mg ml^-1) loaded onto a Bio SEC-5 HPLC column; measured mass 32.2 kDa against 15.87 kDa calculated for the monomer.
Data set [2] deals with T1, ectoine synthase (Pl)EctC (Paenibacillus lautus, UniProt A0A1R1AV52).
T1 construct: full-length (130 amino acids), C-terminal Strep-tag II
The data set is described as follows: X-ray crystal structure ([…] Å). It is filed as binding.

Substrate in data set [3]: CC(=O)NCC[C@H](N)C(=O)O
The experiment in a line: purified protein. It is filed as binding, Paenibacillus lautus. Particulars: Fe2+ active site in the cupin barrel; Trp-21, Arg-25, Asn-38, Thr-40, Tyr-52, Glu-57; acetamide oxygen coordinates the iron.

As to “Paenibacillus lautus ectoine synthase fused at its C-terminus to a Strep-tag II affinity peptide [(Pl)EctC-Strep-tag II] (enzyme)”, the stoichiometry N in data set [1] was 2. For `CC1=N[C@H](C(=O)O)CCN1` [ectoine, (S)−2-methyl-1,4,5,6-tetrahydropyrimidine-4-carboxylic acid], the “X-ray crystal structure (2.5 Å)” value in data set [2] is on record as “The ectoine molecule is coordinated within the active site of the (Pl)EctC enzyme through five direct interactions”.

B1: ectoine synthase (Pl)EctC (Paenibacillus lautus) (protein)
chain: MIVKHLEEIVDTKDDIDTKTWNSRRLLLTKDGMGFSLNDTLIKAGTETLIWYKNHVEAVYCIEGEGEIEVIGGETYPISPGMMYALDGHEKHYLRARSQMRMVCVFNPPLTGAEVHDEEGTYPLLAPISD
notes: full-length (130 amino acids), C-terminal Strep-tag II
As to B1, in data set [3], the Km was 7.8 mM.
